Common to all, as to assay: cryo-EM structure; single-particle cryo-EM of SEC-purified channel in 20 mM Tris pH 7.5, 50 mM NaCl, 1 mM DDM, 0.1 mM CHS; 1 uM CaCl2 added (Ca2+-bound); homopentamer
Test [1] deals with chicken BEST1, residues 1-345 (BEST1_(345)) (chicken).
Test [2] has as its target chicken BEST1, residues 1-345, W287F mutant (BEST1_(345) W287F) (chicken).
For test [3], the target named is chicken BEST1, residues 1-405 (BEST1_(405)) (chicken).

In general, stoichiometry N refers to the number of molecules, sites or subunits per partner or assembly.

In test [1], “chicken BEST1, residues 1-345 (BEST1_(345)) (domain or fragment)” had a stoichiometry N of 5.

The substance “chicken BEST1, residues 1-345, W287F mutant (BEST1_(345) W287F) (domain or fragment)” showed a stoichiometry N in test [2] of 5. In test [3], “chicken BEST1, residues 1-405 (BEST1_(405)) (domain or fragment)” came in with a stoichiometry N of 5.
